Sequences and labels used below:
B1: 22091 (protein)
chain: MALPVTALLLPLALLLHAARPQLQLQESGPGLVKPSETLSLTCTVSGDSISSGDYYWGWIRQPPGKGLEWIGHIYYSGVTYYNPSLKSRVTISVDTSRNQFSLKLSSVTAADTAVYYCTREDSSNWRSRGQGTLVTVSSLEDLKNVFPPEVAVFEPSKAEIAHTQKATLVCLATGFYPDHVELSWWVNGKEVHSGVCTDPQPLKEQPALNDSRYCLSSRLRVSATFWQNPRNHFRCQVQFYGLSENDEWTQDRAKPVTQIVSAEAWGRADCGITSASYHQGVLSATILYEILLGKATLYAVLVSALVLMAMVKRKDSRGRAKRSGSGATNFSLLKQAGDVEENPGPTSMDWIWRILFLVGAATGAHSFEVQLLESGGGLIQPGGSLRLSCAASGFTFSSHAMTWVRQAPGKGLEWVSAISGSGDYTHYADSVKGRFTISRDNSKNTVYLQMNSLRAEDSAVYYCAKDEDGGSLLGHRGQGTLVTVSSTRIQNPDPAVYQLRDSKSSDKSVCLFTDFDSQTNVSQSKDSDVYITDKCVLDMRSMDFKSNSAVAWSNKSDFACANAFNNSIIPEDTFFPSPESSCDVKLVEKSFETDTNLNFQNLSVIGFRILLLKVAGFNLLMTLRLWSSRAKRSGSGVKQTLNFDLLKLAGDVESNPGPSRGHMTEYKPTVRLATRDDVPRAVRTLAAAFADYPATRHTVDPDRHIERVTELQELFLTRVGLDIGKVWVADDGAAVAVWTTPESVEAGAVFAEIGPRMAELSGSRLAAQQQMEGLLAPHRPKEPAWFLATVGVSPDHQGKGLGSAVVLPGVEAAERAGVPAFLETSAPRNLPFYERLGFTVTADVEVPEGPRTWCMTRKPGA
B2: 22020 (protein)
chain: MALPVTALLLPLALLLHAARPQLQLQESGPGLVKPSETLSLTCTVSGDSISSGDYYWGWIRQPPGKGLEWIGHIYYSGVTYYNPSLKSRVTISVDTSRNQFSLKLSSVTAADTAVYYCTREDSSNWRSRGQGTLVTVSSLDSGGGGSFEQLQLQESGPGLVKPSETLSLTCTVSGGSISSGDYYWGWIRQPPGKGLEWIGHIYYSGATYYNPSLKSRVTISVDTSRNQFSLKLSSVTAADTAVYYCTRDDSSNWRSRGQGTLVTVSSTRIQNPDPAVYQLRDSKSSDKSVCLFTDFDSQTNVSQSKDSDVYITDKCVLDMRSMDFKSNSAVAWSNKSDFACANAFNNSIIPEDTFFPSPESSCDVKLVEKSFETDTNLNFQNLSVIGFRILLLKVAGFNLLMTLRLWSSRAKRSGSGVKQTLNFDLLKLAGDVESNPGPSRGHMTEYKPTVRLATRDDVPRAVRTLAAAFADYPATRHTVDPDRHIERVTELQELFLTRVGLDIGKVWVADDGAAVAVWTTPESVEAGAVFAEIGPRMAELSGSRLAAQQQMEGLLAPHRPKEPAWFLATVGVSPDHQGKGLGSAVVLPGVEAAERAGVPAFLETSAPRNLPFYERLGFTVTADVEVPEGPRTWCMTRKPGA
B3: 22096 (protein)
chain: MALPVTALLLPLALLLHAARPQLQLQESGPGLVKPSETLSLTCTVSGDSISSGDYYWGWIRQPPGKGLEWIGHIYYSGVTYYNPSLKSRVTISVDTSRNQFSLKLSSVTAADTAVYYCTREDSSNWRSRGQGTLVTVSSLEGQPKANPTVTLFPPSSEELQANKATLVCLISDFYPGAVTVAWKADGSPVKAGVETTKPSKQSNNKYAASSYLSLTPEQWKSHRSYSCQVTHEGSTVEKTVAPTECSPIKTDVITMDPKDNCSKDANDTLLLQLTNTSAYYMYLLLLLKSVVYFAIITCCLLRRTAFCCNGEKSRAKRSGSGATNFSLLKQAGDVEENPGPTSMDWIWRILFLVGAATGAHSFEVQLLESGGGLIQPGGSLRLSCAASGFTFSSHAMTWVRQAPGKGLEWVSAISGSGDYTHYADSVKGRFTISRDNSKNTVYLQMNSLRAEDSAVYYCAKDEDGGSLLGHRGQGTLVTVSSTRASTKGPSVFPLAPSSKSTSGGTAALGCLVKDYFPEPVTVSWNSGALTSGVHTFPAVLQSSGLYSLSSVVTVPSSSLGTQTYICNVNHKPSNTKVDKRVEPKSCEVKTDSTDHVKPKETENTKQPSKSCHKPKAIVHTEKVNMMSLTVLGLRMLFAKTVAVNFLLTAKLFFLRAKRSGSGVKQTLNFDLLKLAGDVESNPGPSRGHMTEYKPTVRLATRDDVPRAVRTLAAAFADYPATRHTVDPDRHIERVTELQELFLTRVGLDIGKVWVADDGAAVAVWTTPESVEAGAVFAEIGPRMAELSGSRLAAQQQMEGLLAPHRPKEPAWFLATVGVSPDHQGKGLGSAVVLPGVEAAERAGVPAFLETSAPRNLPFYERLGFTVTADVEVPEGPRTWCMTRKPGA
B4: 22162 (protein)
chain: MALPVTALLLPLALLLHAARPDIQMTQSPSSLSASVGDRVTITCKASDHINNWLAWYQQKPGQAPKLLIYGATTLETGVPSRFSGSGSGTDYTLTISSLQPEDFATYYCQQSWNTPWTFGQGTKLEIKRLEDLKNVFPPEVAVFEPSEAEISHTQKATLVCLATGFYPDHVELSWWVNGKEVHSGVCTDPQPLKEQPALNDSRYCLSSRLRVSATFWQNPRNHFRCQVQFYGLSENDEWTQDRAKPVTQIVSAEAWGRADCGFTSESYQQGVLSATILYEILLGKATLYAVLVSALVLMAMVKRKDSRGRAKRSGSGATNFSLLKQAGDVEENPGPTSATMDWIWRILFLVGAATGAHSGPEVQLLESGGGLVQPGGSLRLSCAASGSIASIHAMGWFRQAPGKEREFVAVITWSGGITYYADSVKGRFTISRDNSKNTVYLQMNSLRPEDTALYYCAGDKHQSSWYDYWGQGTLVTVSSGSGGGGSGGGGSGGGGSFEQVQLQQPGAELVKPGASVKMSCKASGYAFSSYWINWMKQKPGQGLEWIGQIYPGDGDTNYNGKFKGRATLTADTSSSTAYMQLSSLTSEDSAVYFCARSITTVVGCAMDYWGQGTSVTVSSTRIQNPDPAVYQLRDSKSSDKSVCLFTDFDSQTNVSQSKDSDVYITDKCVLDMRSMDFKSNSAVAWSNKSDFACANAFNNSIIPEDTFFPSPESSCDVKLVEKSFETDTNLNFQNLSVIGFRILLLKVAGFNLLMTLRLWSSRAKRSGSGVKQTLNFDLLKLAGDVESNPGPSRGHMTEYKPTVRLATRDDVPRAVRTLAAAFADYPATRHTVDPDRHIERVTELQELFLTRVGLDIGKVWVADDGAAVAVWTTPESVEAGAVFAEIGPRMAELSGSRLAAQQQMEGLLAPHRPKEPAWFLATVGVSPDHQGKGLGSAVVLPGVEAAERAGVPAFLETSAPRNLPFYERLGFTVTADVEVPEGPRTWCMTRKPGA

The first assay deals with Nalm6 cells. In words: JNG assay, co-culture with Nalm6 cells. The format is cell-based. Conditions: co-culture with Nalm6. As for the experimental part:
Cellular supernatant is collected and assayed for the induction of cytokines (e.g., IL2).
JNG (Jurkat cells expressing EGFP under an NFAT promoter) were infected with lentiviral vectors encoding different single chain and multi-chain SARs by spinfection in the presence of 8 µg/ml of Polybrene® (Sigma, Catalog no. H9268). The Jurkat-NFAT-GFP cells are engineered in such a way that the IL-2 promoter, which carries NFAT binding sites, is cloned upstream of the GFP gene. These cells have been used to study signaling via TCR and CAR. The different SARs were stably expressed in Jurkat NFAT-GFP cells by lentiviral mediated gene transfer, followed by selection with puromycin or blasticidin. No drug selection was used in case the construct lacked an antibiotic resistance gene. The SAR-expressing Jurkat-NFAT-GFP cells were cocultured with the target cells at E:T ratio of approximately 1:2 for approximately 4 hours to 18 hours. When the interaction between SIRs and their target antigen results in activation of the NFAT pathway, GFP expression is induced. […] GFP expression was monitored by FACS analysis. The Jurkat-NFAT-GFP (parental) cells were used as control. The structure of different constructs can be determined based on their names. For example, the construct CD8SP-CD19-hu-mROO5-1-vL-[hTCRa-C SDVP]-F-F2A-Spe-IgHSP-Apa-CD20-vHH-2HCD25-G4S-CDl9-hu-mROO5-1-vH-Mlu-[hTCRb-KACIAH]-F-P2A-PAC has the following modules from 5′ to 3′ direction: a CD8 signal peptide (CD8SP), the CD19 targeting hu-mROO5-1 vL fragment (CD19-hu-mROO5-1), Xho1 cloning site, human TCRa constant chain containing CSDVP mutations (hTCRa-CSDVP), Furine cleavage site (F), F2A ribosomal skip sequence (F2A), SpeI site, human IgH signal peptide (IgHSP), Apa I restriction enzyme site, camelid CD20-2HCD25-VHH module targeting CD20, BamHI restriction enzyme site, Glycinex4-serine linker (G4S), BstI restriction enzyme site, CD19-hu-mROO5-1-vH fragment targeting CD19, Mlu I restriction enzyme site, human TCRb constant chain containing KACIAH mutations ([hTCRb-KACIAH]), Furine cleavage site (F), P2A ribosomal skip sequence and Puromycin resistance gene (PAC). The sequence of the other constructs in the table can be similarly determined from their names and by referring to the different Tables of this disclosure that provide the names and SEQ ID NO of the different modules. Alternatively, the composition and modular architecture of the different SAR constructs can be determined from their sequences by bioinformatics tools, including using nucleic acid and amino acids homology searches. A SAR is considered positive in the assay in case the SAR expressing Jurkat-NFAT-GFP cells show greater % GFP positive cells when cultured with the target cell line as compared to parental Jurkat-NFAT-GFP cells. The signs +/-, +, 2+ etc. after the name of the cell lines indicate the relative degree of positivity on the Jurkat-NFAT-GFP assay as measured by the % GFP positive cells after culture of the SAR expressing Jurkat-NFAT-GFP cells with that cell line above the % GFP cells observed in parental Jurkat NFAT-GFP cells serving as controls. In general, the number +/-, +, 2+, 3+, 4+, 5+ refer to approximately 5%, 10%, 20%, 30%, 40% and 50% GFP positive cells. The % of GFP induction in the above assay is dependent not only the relative strength of the SAR but also, among other factors, on the relative level of expression of the SAR in the JNG cells and the relative level of expression of the target antigen in the target cell line. To control for the difference in gene transduction efficiency of the different SAR constructs, the experiment was conducted with JNG cells transduced with SAR constructs co-expressing a drug resistance gene (e.g., puromycin or PAC) followed by drug selection to generate a stable population of SAR-expressing cells. […]
B1: the “NFAT-GFP ASSAY: Nalm6” value was “+/- (refer to approximately 5%, 10%, 20%, 30%, 40% and 50% GFP positive cells)”.

In the case of B2, the “NFAT-GFP ASSAY: Nalm6” value was “+/- (refer to approximately 5%, 10%, 20%, 30%, 40% and 50% GFP positive cells)”.

With B3, the “NFAT-GFP ASSAY: Nalm6” value was “+ (refer to approximately 5%, 10%, 20%, 30%, 40% and 50% GFP positive cells)”.

On to B4, for which the “NFAT-GFP ASSAY: Nalm6” value was 5+ (refer to approximately 5%, 10%, 20%, 30%, 40% and 50% GFP positive cells).

The next assay has as its system RAJI cells. Nature of the assay: JNG assay, co-culture with RAJI cells. The format is cell-based. The conditions noted are these: JNG cells expressing construct, co-culture with Raji. In outline:
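Jurkat-NFAT-GFP (JNG) cells stably expressing SAR constructs via lentiviral transduction and puromycin/blasticidin selection were cocultured with target cells at E:T ~1:2 for ~4–18 h. NFAT-driven GFP was measured by FACS versus parental JNG cells; scores +/- to 5+ denote ~5–50% GFP-positive cells.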
On to B1, for which the “NFAT-GFP ASSAY: Raji” value is “+ (refer to approximately 5%, 10%, 20%, 30%, 40% and 50% GFP positive cells)”.

As for B2, the “NFAT-GFP ASSAY: Raji” value was “+/- (refer to approximately 5%, 10%, 20%, 30%, 40% and 50% GFP positive cells)”.

As for B3, the “NFAT-GFP ASSAY: Raji” value is 2+ (refer to approximately 5%, 10%, 20%, 30%, 40% and 50% GFP positive cells).

These data come from patent US20230212319A1, “NOVEL ANTIGEN BINDING DOMAINS AND SYNTHETIC ANTIGEN RECEPTORS INCORPORATING THE SAME” (University of Southern California, priority 2020, published 2023).
